Data: publication PMC6457538

Biological target: HoLaMa DNA polymerase (Klenow sub-fragment lacking the 3'-5' exonuclease domain) (UniProt P00582)
Assay: intrinsic tryptophan fluorescence quenching titration
Conditions: 500 nM enzyme; n = 1.24 ± 0.03 DNA per enzyme; no dNTP; Kd titration: 50 mM sodium phosphate pH 8.0, 50 mM NaCl, temperature not stated in the material; stopped-flow: 50 mM Tris-HCl pH 8.0, 0.5 mM EDTA, 10 mM MgCl2 …

UniProt P00582, sequence (P00582 whole entry, the tested form may be a part): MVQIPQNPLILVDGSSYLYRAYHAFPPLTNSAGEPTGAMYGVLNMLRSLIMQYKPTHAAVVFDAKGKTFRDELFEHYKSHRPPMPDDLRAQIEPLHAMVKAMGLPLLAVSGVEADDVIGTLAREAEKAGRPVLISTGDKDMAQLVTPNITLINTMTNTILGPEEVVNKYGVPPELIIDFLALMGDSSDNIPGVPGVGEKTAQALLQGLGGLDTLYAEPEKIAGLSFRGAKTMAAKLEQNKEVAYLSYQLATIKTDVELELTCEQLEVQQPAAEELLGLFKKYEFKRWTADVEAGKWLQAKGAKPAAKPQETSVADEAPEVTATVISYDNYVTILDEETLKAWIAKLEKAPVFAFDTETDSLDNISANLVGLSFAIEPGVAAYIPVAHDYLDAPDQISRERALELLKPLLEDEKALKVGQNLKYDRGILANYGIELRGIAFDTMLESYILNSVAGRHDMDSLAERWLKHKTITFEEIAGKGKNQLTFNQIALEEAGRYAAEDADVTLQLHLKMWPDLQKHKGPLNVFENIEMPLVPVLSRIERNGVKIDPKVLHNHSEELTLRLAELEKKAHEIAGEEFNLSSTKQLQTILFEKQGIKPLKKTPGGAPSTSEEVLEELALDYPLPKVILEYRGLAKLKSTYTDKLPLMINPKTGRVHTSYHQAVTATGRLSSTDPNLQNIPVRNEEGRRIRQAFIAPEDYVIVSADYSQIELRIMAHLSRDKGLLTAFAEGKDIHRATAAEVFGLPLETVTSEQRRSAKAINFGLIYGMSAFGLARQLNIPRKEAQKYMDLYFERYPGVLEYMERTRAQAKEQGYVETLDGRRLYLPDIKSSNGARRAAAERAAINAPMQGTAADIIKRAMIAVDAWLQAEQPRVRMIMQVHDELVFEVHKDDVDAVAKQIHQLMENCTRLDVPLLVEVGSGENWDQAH

AAAAAAAAAAAAAAAAAAAAAAAAAAAAAAAAGCGCGCGC / GCGCGCGCTTTTTTT [40mer polyA DNA (40mer template / 15mer primer)]
Kd: 0.0351 µM
